Common to all, as to test: cell-based or functional assay
In experiment [1] the target is 20S core particle (CP) proteasome.
Experiment [2] shares this target. The source holds these as a separate data set.
The target in experiment [3] is cytosolic proteasome in HEK293 T cells.

These results are taken from patent US20250073302A1 (PURDUE RESEARCH FOUNDATION, published 2025).

Non-standard residues stand in square brackets, D forms with d. No end group written: not given here. dPra = C#CC[C@@H](N)C(=O)O; dDap = NC[C@@H](N)C(=O)O

B1: CyPPS1 (peptide)
peptide: cyclo(T[dL]F[dF]R[dA])
SMILES: CC(C)C[C@H]1NC(=O)[C@H]([C@@H](C)O)NC(=O)[C@@H](C)NC(=O)[C@H](CCCNC(=N)N)NC(=O)[C@@H](Cc2ccccc2)NC(=O)[C@H](Cc2ccccc2)NC1=O
In the case of B1, in experiment [1], the “EC50, dose-response of 20S CP stimulation” value (shortened to “EC50, dose-response”) stood at 6.4 µM and the “Emax, dose-response of 20S CP stimulation” value (shortened to “Emax, dose-response”) amounted to 283. Further, the “TAS-1 (percent stimulation of 20S CP)” value in experiment [2] is 340 % of DMSO. In addition, the “In-Cellulo (flow cytometry with epoxomicin probe, HEK293 T cells)” value (shortened to “In-Cellulo”) in experiment [3] is 235 not printed.

B2: CyPPS7 (peptide)
peptide: cyclo(K[dL]F[dF]R[dA])
SMILES: CC(C)C[C@H]1NC(=O)[C@H](CCCCN)NC(=O)[C@@H](C)NC(=O)[C@H](CCCNC(=N)N)NC(=O)[C@@H](Cc2ccccc2)NC(=O)[C@H](Cc2ccccc2)NC1=O
Turning to B2, in experiment [2], the “TAS-1 (percent stimulation of 20S CP)” value was 226 % of DMSO.

B3: CyPPS13 (peptide)
peptide: cyclo(T[dV]F[dF]R[dA])
SMILES: CC(C)[C@H]1NC(=O)[C@H]([C@@H](C)O)NC(=O)[C@@H](C)NC(=O)[C@H](CCCNC(=N)N)NC(=O)[C@@H](Cc2ccccc2)NC(=O)[C@H](Cc2ccccc2)NC1=O
Turning to B3, in experiment [1], the “EC50, dose-response” value stood at 4 µM and the “Emax, dose-response” value is 394. For the same molecule, the “TAS-1 (percent stimulation of 20S CP)” value in experiment [2] is 422 % of DMSO. For the same molecule, the “In-Cellulo” value in experiment [3] came out at 174 not printed.

B4: CyPPS14 (peptide)
peptide: cyclo(T[dPra]F[dF]R[dA])
SMILES: C#CC[C@H]1NC(=O)[C@H]([C@@H](C)O)NC(=O)[C@@H](C)NC(=O)[C@H](CCCNC(=N)N)NC(=O)[C@@H](Cc2ccccc2)NC(=O)[C@H](Cc2ccccc2)NC1=O
On to B4, for which, in experiment [1], the “EC50, dose-response” value was found to be 12.1 µM and the “Emax, dose-response” value came to 514. For the same molecule, in experiment [2], the “TAS-1 (percent stimulation of 20S CP)” value is 388 % of DMSO. For the same molecule, the “In-Cellulo” value in experiment [3] was 231 not printed.

B5: CyPPS23 (peptide)
peptide: cyclo(T[dL]F[dF]R[dDap])
SMILES: CC(C)C[C@H]1NC(=O)[C@H]([C@@H](C)O)NC(=O)[C@@H](CN)NC(=O)[C@H](CCCNC(=N)N)NC(=O)[C@@H](Cc2ccccc2)NC(=O)[C@H](Cc2ccccc2)NC1=O
In the case of B5, in experiment [1], the “EC50, dose-response” value was found to be 4.1 µM and the “Emax, dose-response” value was 391. The “TAS-1 (percent stimulation of 20S CP)” value in experiment [2] is 352 % of DMSO. In experiment [3], the “In-Cellulo” value stood at 247 not printed.
Turning to TLFFRA (also: linear version of CyPPS1, D-residues not given here) [PPS1], the “TAS-1 (percent stimulation of 20S CP)” value in experiment [2] is 126 % of DMSO. The “In-Cellulo” value in experiment [3] came to 83.7 not printed.

B6: CyPPS8 (peptide)
peptide: cyclo(D[dL]F[dF]R[dA])
SMILES: CC(C)C[C@H]1NC(=O)[C@H](CC(=O)O)NC(=O)[C@@H](C)NC(=O)[C@H](CCCNC(=N)N)NC(=O)[C@@H](Cc2ccccc2)NC(=O)[C@H](Cc2ccccc2)NC1=O
Take B6: in experiment [1], the “EC50, dose-response” value stood at 14.2 µM and the “Emax, dose-response” value came out at 701. The “TAS-1 (percent stimulation of 20S CP)” value in experiment [2] is 372 % of DMSO. In experiment [3], the “In-Cellulo” value amounted to 161 not printed.

B7: CyPPS9 (peptide)
peptide: cyclo(V[dL]F[dF]R[dA])
SMILES: CC(C)C[C@H]1NC(=O)[C@H](C(C)C)NC(=O)[C@@H](C)NC(=O)[C@H](CCCNC(=N)N)NC(=O)[C@@H](Cc2ccccc2)NC(=O)[C@H](Cc2ccccc2)NC1=O
Regarding B7, in experiment [2], the “TAS-1 (percent stimulation of 20S CP)” value was 310 % of DMSO.
